US20220112288A1 (published 2022)
Changes are numbered by the printed parent chain.

B1: 75110_06D16A (antibody, V domains shown)
VH: QVQLQQWGAGLLKPSETLSLTCAVYGGSFSGYYWSWIRQPPGKGLEWIGEINHSGSTNYNPSLKSRVTISVVTSKNQFSLKLSSVTAADTAVYYCARVLNWFDPWGQGTLVTVSS
VL: DIQMTQSPSSVSASVGDRVTITCRASQDIADWLAWYQQKPGKAPKLLIYAASSFQSGVPSRFSGSGSGTDFTLTISSLQPEDFATYFCQQANSFPYTFGQGTKLEIK
notes: Tested as clonal hybridoma supernatant of an AlivaMab Mouse Kappa antibody (human variable regions, kappa; detected with anti-mouse Fc)
B2: 75110_08D24A (antibody, V domains shown)
VH: QVQLQESGPGLVKPSETLSLTCTVSGGSISGFYWSWIRQPAGKGLEWIGRIYTSENTNYNPSLKSRVTMSVDTSKNQFSLKLSSVTAADTAVYYCARDREGYYYYGMDVWGQGTTVTVSS
VL: DIQMTQSPSSLSASVGDRVTITCQASQDISNYLNWYQQKPGKAPKLLIYAASNLETGVPSRFSGSGSGTDFTFTISSLQPEDIATYYCQQYDSLPITFGQGTRLEIK
B3: 75110_06K03A (antibody, V domains shown)
VH: B2 VH with G31T, F32Y, Y52N, E55G, N56S, N58T, D98E, R99L, G101R
VL: B2 VL with A50Y, N53I, I96L, Q100G, R103K, L104V
B4: 75110_06G04A (antibody, V domains shown)
VH: QVQLLESGPGLVKPSETLSLTCTVSGGSISSYYWSWIRQPAGKGLEWIGRIYISGSTNYNPSLKSRVTMSIDTSENQFSLNLSSVTAADTAVYYCARELERPYYYGMDVWGQGTTVTVSS
VL: B2 VL with A50N, N53T, S93N, I96L, Q100G, R103K, L104V, I106F
B5: 75110_08F20A (antibody, V domains shown)
VH: QVQLQESGPGLVKPSETLSLTCSVSGGSISTYYWSWIRQPAGKGLEWIGRICTTENTNYNPSLKSRVTMSIDSSKNQFSLKLSSVTAADTAVYYCARDLERLNYYGMDVWGQGATVTVSS
VL: B2 VL with N31K, K42I, A50D, I83F
B6: 75110_08G08A (antibody, V domains shown)
VH: B5 VH
VL: B2 VL with K42I, A50D
B7: 75110_06E14A (antibody, V domains shown)
VH: B2 VH with G31N, F32Y, Y33F, T53S, E55G, G101D
VL: B2 VL with A50G, N53I, S63T
B8: 75110_08M20A (antibody, V domains shown)
VH: B2 VH with G8D, G31S, F32Y, T53A, E55G, N56S
VL: B2 VL with N31K, K45N, T85A
B9: 75110_07J02A (antibody, V domains shown)
VH: EVQLVESGGGLVQPGGSLRLSCAASGFTFSSYWMSWVRQAPGKGLEWVANIKEDGSEKYYVDSVKGRFTISRDNAKNSLYLQMNSLRAEDTAVYYCARDGSYSGYGMDVWGQGTTVTVSS
VL: AIQMTQSPSSLSASVGDRVTITCRASQGIRNDLGWYQQKPGKAPKLLIYAASSLQSGVPSRFSGRGSGTDFALTISSLQPEDFATYYCLLDYNYPYTFGQGTRLEIK
B10: 75110_10K21A (antibody, V domains shown)
VH: EVQLVESGGGLVQPGGSLRLSCAASGFTFSSYWMTWVRQAPGKGLEWVANIKQDGSEKYYVDSVKGRFTISRDNAKNSLYLQMNSLRAEDTAVYYCVRDRYDALDIWGQGTMVTVSS
VL: B9 VL with G34N, R65S, A72T, P80A, L90K, R103K
B11: 75110_08A13A (antibody, V domains shown)
VH: B9 VH with T28I, E53Q, V61M, G100N, S103Y, G104Y
VL: B9 VL with N31D, Y49F, R61S, R65S, A72T, L90H, D91H, R103K
B12: 75110_07J24A (antibody, V domains shown)
VH: QAQLQESGPGLVKPSETLSLTCTVSGGSISSYYYNWIRQPAGKGLEWIGRIYTSGRTDYNPSLKSRVTMSADTSKNQFSLKLSSVTAADTAVYYCARDEGPTDAFDIWGQGTMVTVSS
VL: DIVMTQTPLSLPVTPGEPASISCRSSQSLLDSDDGNTYLDWYLQKPGQSPHLLIYTLSYRASGVPDRFSGSGSGSDFTLKISRVEAEDVGVYYCMQRIEFPFTFGPGTKVDIK
B13: 75110_07N04A (antibody, V domains shown)
VH: QVQLQESGPGLVKPSETLSLTCSVSGVSSTSFYWSWIRQPAGKGLDWIGRIYTSGSTNYNPSLKSRVTMSVDTSKNQFSLKLSSVTAADTAVYYCARDPGYSDAFAIWGQGTMVTVSS
VL: not shown
B14: 75110_08H11A (antibody, V domains shown)
VH: EVQLVESGGGLVQPGGSLRLSCAASGFTFSSYDMHWVRQATGKGLEWVSTIGTAGDTYYPGSVKGRFTISRENAKNSLYLQMNSLRAGDTAVYYCARGGYSYYGMDVWGQGTTVTVSS
VL: EIVLTQSPGTLSLSPGERATLSCGASQSVSSTYLAWYQQKPGQAPRLLIYGASSRATGIPDRFSGSGSGTDFTLTISRLEPEDFAVYYCQQFGSSPFTFGPGTKVDIK
B15: 75110_08H06A (antibody, V domains shown)
VH: B14 VH with S31N, S101D
VL: B14 VL with G24R, V29I, S30T, T32I, Q38R, F92Y
B16: 75110_10L22A (antibody, V domains shown)
VH: B14 VH with S84G, G99N, S101F, M105V
VL: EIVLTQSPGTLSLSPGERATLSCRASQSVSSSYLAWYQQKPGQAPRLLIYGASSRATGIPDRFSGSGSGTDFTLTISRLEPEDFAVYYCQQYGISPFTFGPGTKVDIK
B17: 75110_10N21A (antibody, V domains shown)
VH: B14 VH with A40V, S101Y
VL: B14 VL with G24R, V29F, S30I, T32S, E80D, F92S, S94N, I107V
B18: 75110_07E04A (antibody, V domains shown)
VH: B14 VH with A24V, N76K, S77F, S101Y
VL: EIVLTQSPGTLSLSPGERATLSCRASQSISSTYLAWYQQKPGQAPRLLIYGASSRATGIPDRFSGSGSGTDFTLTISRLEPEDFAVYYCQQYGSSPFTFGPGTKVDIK
B19: 75110_08K12A (antibody, V domains shown)
VH: B14 VH with K75E, V92L, G99D, S101Y
VL: B14 VL with G24R, S54N, S94T
B20: 75110_07B16A (antibody, V domains shown)
VH: B1 VH with P40S, H53Q, V72D, N76D, L99I, P104S, T109S
VL: B1 VL with D28G, A30S, D31S, A50D, P80T, E81D, F87Y
B21: 75110_09N20A (antibody, V domains shown)
VH: EVQLVESGGGLVQPGGSLRLSCAASGFTFSSYWMSWVRQAPGKGLEWVANINEDGSEKYYVDSVKGRFTISRDNAKNSLYLQMNSLRAEDTAVYYCVREGGQWLALDYWGQGTLVTVSS
VL: B1 VL with D28G, A30S, D31S, F54L, R61S, S76N, F87Y, Y96W, L104V, E105A
B22: 75110_07H07A (antibody, V domains shown)
VH: B21 VH with L4V, N52K, D54E
VL: DIQMTQSPSSVSGSVGDRVTITCRASQGISSWLAWYQQKPGKAPKLLIFGASSLQSGVPSRFSGSGSGTDFTLTISSLQPEDFATYYCQQANSFPWTFGQGTKVQIK
B23: 75110_09G15A (antibody, V domains shown)
VH: B21 VH with S31D, E53Q, Y60S, V93I, Y94F, V97A
VL: B22 VL with G13A, F49Y, S76N, A84T, S93I, Q105E
B24: 75110_01A06A (antibody, V domains shown)
VH: B21 VH with S56N, F68L, Y95F, V97A, A105S, T113A
VL: B22 VL with G13A, T20S, L46I, F49Y, Q105E
notes: Tested as clonal hybridoma supernatant of an AlivaMab Mouse Kappa hybridoma (detected with anti-mouse Fc); Kappa light chain; also called Sib2.1
B25: 75110_03D16A (antibody, V domains shown)
VH: B21 VH with E53Q, S56G
VL: B22 VL with G13A, A34T, L46F, F49Y, G50A, S67F, Q105E
notes: Tested as clonal hybridoma supernatant (AlivaMab Mouse Kappa; anti-mouse Fc detection); also called Sib2.5
B26: 75110_02N15A (antibody, V domains shown)
VH: B21 VH with S56N, Y80F, Y95F, V97A, Y108H, T113A
VL: B22 VL with G13A, L46F, F49S, Q105E, I106F
notes: Tested as clonal hybridoma supernatant (AlivaMab Mouse Kappa; anti-mouse Fc detection); also called Sib2.3

Target: T1, human CD4 on human PBMCs (human, UniProt P01730 26-458)
T1 construct: whole, on cells; the CD4-positive gate was set with the control antibodies OKT4 and RPA-T4; also called hCD4
Assay: FACS, clonal hybridoma supernatant on PBMCs

| Binder | % CD4 Stain | gMFI of CD4+ |
| --- | --- | --- |
| B1 | 39.2% | 253000 gMFI |

Target: T2, human CD4 on human PBMCs (human, UniProt P01730 26-458)
T2 construct: whole, on cells; also called hCD4
Assay: FACS, clonal hybridoma supernatant on PBMCs

| Binder | % CD4 Stain | gMFI of CD4+ |
| --- | --- | --- |
| B2 | 33.6% | 332000 gMFI |
| B3 | 34% | 320000 gMFI |
| B4 | 34.8% | 307000 gMFI |
| B5 | 33.2% | 307000 gMFI |
| B6 | 32.2% | 324000 gMFI |
| B7 | 31.7% | 225000 gMFI |
| B8 | 34.1% | 343000 gMFI |
| B9 | 33.4% | 228000 gMFI |
| B10 | 29% | 119000 gMFI |
| B11 | 30.3% | 140000 gMFI |
| B12 | 28.8% | 28400 gMFI |
| B13 | 33.8% | 104000 gMFI |
| B14 | 27.1% | 87000 gMFI |
| B15 | 28.1% | 88800 gMFI |
| B16 | 34.3% | 77400 gMFI |
| B17 | 38.3% | 203000 gMFI |
| B18 | 36.1% | 141000 gMFI |
| B19 | 34.6% | 175000 gMFI |
| B20 | 37.3% | 189000 gMFI |
| B21 | 37.5% | 227000 gMFI |
| B22 | 37.1% | 204000 gMFI |
| B23 | 37.3% | 237000 gMFI |

Target: T3, human CD4 (human, UniProt P01730 26-458)
T3 construct: whole, on cells; also called hCD4
Assay: FACS, clonal hybridoma supernatant on human PBMCs

| Binder | % CD4 Stain | gMFI of CD4+ |
| --- | --- | --- |
| B24 | 33.7% | 115000 gMFI |
| B25 | 35.6% | 207000 gMFI |
| B26 | 39% | 253000 gMFI |
